Assay [1] deals with 26S proteasome reconstituted with Cy3-labeled base (Rpt1-I191AzF-Cy3) (S. cerevisiae) (UniProt P33299). Put plainly: FRET or BRET.
The target in assay [2] is reconstituted 26S proteasome (wild-type base, lid, Rpn10 and 20S core) (S. cerevisiae) (UniProt P33299).

For five substances, kapp (1/τapp) of tail insertion, fast phase, τapp of tail insertion, fast phase and KM of multiple-turnover processing (Michaelis-Menten, anisotropy) results are on record in publication PMC6519451.

The substance “ubiquitinated titin-I27^V15P-23-K-11, Cy5-labeled (from UniProt P0CG63 1-76)” yielded a kapp (1/τapp) of tail insertion, fast phase in assay [1] of 1.4 s⁻¹.
Take “ubiquitinated titin-I27^V15P-23-K-35 modified with Cy5 on its unstructured tail (from UniProt P0CG63 1-76)”: in assay [1], the kapp (1/τapp) of tail insertion, fast phase came out at 0.62 s⁻¹ and the τapp of tail insertion, fast phase is 1.61 s.
The substance “ubiquitinated titin-I27^V15P-23-K-25 (serine rich), Cy5-labeled (from UniProt P0CG63 1-76)” had a τapp of tail insertion, fast phase in assay [1] of 7.15 s.
“ubiquitinated titin-I27^V15P-23-K-25, Cy5-labeled (from UniProt P0CG63 1-76)” returned a τapp of tail insertion, fast phase in assay [1] of 1.73 s.
As to “ubiquitinated titin-I27^V15P-43-K-11 (from UniProt P0CG63 1-76)”, the KM of multiple-turnover processing (Michaelis-Menten, anisotropy) in assay [2] amounted to 2 µM.
